One series addresses T1, BaDH (Aromatoleum aromaticum, UniProt Q5P459).
T1 construct: gene adh; recombinant, expressed in E. coli BL21(DE3), purified; details in supplement
T1 sequence (Q5P459 1-362): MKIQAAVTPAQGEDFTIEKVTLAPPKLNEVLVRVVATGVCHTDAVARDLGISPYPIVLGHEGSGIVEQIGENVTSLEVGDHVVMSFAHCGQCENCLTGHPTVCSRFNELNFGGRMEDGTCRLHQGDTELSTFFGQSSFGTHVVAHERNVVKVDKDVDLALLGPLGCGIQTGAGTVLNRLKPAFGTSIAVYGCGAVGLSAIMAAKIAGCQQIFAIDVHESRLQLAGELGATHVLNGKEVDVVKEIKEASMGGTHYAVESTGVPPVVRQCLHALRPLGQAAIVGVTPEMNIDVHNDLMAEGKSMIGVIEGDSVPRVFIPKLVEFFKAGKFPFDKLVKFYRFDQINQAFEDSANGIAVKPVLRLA
Description: coupled assay with AORAa, NADPH at […] nm and HPLC of benzyl alcohol. The format is biochemical. Conditions: 100 mM citric buffer pH 5.5, 30 °C, benzaldehyde formed in situ by AORAa.

Substrate in series [1]: NC(=O)c1ccc[n+]([C@@H]2O[C@H](COP(=O)(O)OP(=O)(O)OC[C@H]3O[C@@H](n4cnc5c(N)ncnc54)[C@H](O)[C@@H]3O)[C@@H](O)[C@H]2O)c1
Description: purified protein. Conditions: 2.5% H2 as electron donor, 100 mM Tris/HCl pH 8.0, 30 °C, anaerobic, FAD gamma-subunit site expected. The format is biochemical, Aromatoleum aromaticum.

Substrate in series [2]: O=C(O)c1ccccc1
Description: purified protein. The format is biochemical, Aromatoleum aromaticum. Conditions: 2.5% H2 as electron donor, 0.6 mM NADPH, 100 mM citric buffer pH 5.5, 30 °C, W-cofactor beta-subunit site.

Substrate in series [3]: O=Cc1ccccc1
Briefly: steady-state kinetics, initial rates of benzaldehyde oxidation with NAD+. The format is biochemical, Aromatoleum aromaticum. Conditions: 1 mM NAD+, Tris/HCl pH 8.0, 30 °C, aerobic, W-cofactor beta-subunit site. The source says: steady-state kinetics, initial rates of benzaldehyde oxidation with NAD+ on AORAa

Take `NC(=O)C1=CN([C@@H]2O[C@H](COP(=O)(O)OP(=O)(O)OC[C@H]3O[C@@H](n4cnc5c(N)ncnc54)[C@H](OP(=O)(O)O)[C@@H]3O)[C@@H](O)[C@H]2O)C=CC1` [NADPH]: on BaDH, the “coupled assay with AORAa, NADPH at 365 nm and HPLC of benzyl alcohol” value is given as “confirming that NADPH was only turned over by BaDH, not by AORAa”.

As to `O=Cc1ccccc1` [benzaldehyde], on BaDH, the “coupled assay with AORAa, NADPH at 365 nm and HPLC of benzyl alcohol” value is on record as “it also catalyzed the reduction of benzaldehyde with either NADH or NADPH”.

B1: AORAa (Aromatoleum aromaticum EbN1) (protein)
chain 1: MGWNRKVLRVNLAEGTCTPEPLNMQWADEYLGSRGLATKYLVSETDPKVDPLSPDNKMIMATGPLTGTMASTGGRYTVVTKGPLTGAIACSNSGGFFGAEMKFAGWDMVIFEGRSPTPVYLFIENERAELRDASYLWGRSCWETEESIRAQHQDPLIRVSSIGRAGENQVMFACIVNDLHRAAGRSGVGAVMGSKNLKAVAIRGTKGVSGIRDFPGFVRATSEAKKVLAGNPVTSEGLPKFGTQVLMNVINEMGALPTRNHRDVQFEDASKISAEAMHEKRPSDGKPQLVTNAACFGCTIACGRISAIDKTHFTVKNNPKYWGASGGLEYEAAWALGAANGVGDLEALQYANLLCNEQGMDPISFGATVGAAMELYETGVLTKERIGLDAPFGSADALAKLAEMTATGEGFGKEIGLGSKRLCEKYGHPELSMSVKGQEFPAYDSRGIQGMGLAYATSNRGACHLRGYTVASEVLGVPVKTDPHVIEGKAELVKAFQDATAVFDSAGICVFTSFAWTLADVQPQIAAACDGDWSMDKLATVGERIWNMERQFNNAAGLGAQDDNLPPRLTSEPAKSGPAKGMVNRLAEMLPEYYGVRGWTPEGTPTPETLSRLGLS
chain 2: MKHVILGNGPAGVIAAETLRRAAPTDDILLFGSEDAPPYSRMAIPYLLEGNIDESGTWLRKSPGHFDRLRIHEMRGRAVSLDSERRRILFDDGHFESWDRLLIATGSHPVRPPIPGIDLPEVQTCWTLEDARAIARFATPGARVLQLGAGFIGCIIMEALAARGVELTVVEMGDRMVPRMMTPTAGGMIRKWVEDQGVRVVTNAGVSRIDCRASNDAPLDVTLSTGEVVVADLVIVAAGVAPNIAFLEATPVHVAKGVLVDDRLQTSVPGIFAAGDVAEAPDLFTGAHLVAAIQPNAADQARVAALNMAGHEARLKGVLAINVLDTLGLISSSFGQWWGEERERGGAGVEHVDEAAYRYLSLQFKDDVLIGATSIGLTEHVGALRGLIHGRVRLGEWKERLLHSPLQFVDAYIARSQQPMALVR
notes: full-length AorABC, N-terminal Twin-Strep-tag on AorA, co-expressed with AorDE in Aromatoleum evansii; (alpha-beta)2-gamma complex, 218 kDa; with Aldehyde oxidoreductase polyferredoxin (iron-sulfur) subunit alpha
A word on the Km: it is the substrate concentration at which the rate is half of its maximum. By Vmax is commonly meant the rate approached at saturating substrate. Broadly, the kcat is the maximal rate divided by the concentration of active sites. The term kcat/Km denotes the second-order rate constant that governs catalysis at low substrate concentration. As for B1, in “purified protein [1]”, the Michaelis constant (Km) was 21.7 ± 2.7 µM, the maximum rate (Vmax) is 3.7 µmol/min/mg, the catalytic constant (kcat) stood at 13.4 s⁻¹ and the catalytic efficiency (kcat/Km) came to 600000 M⁻¹ s⁻¹. Besides, in “purified protein [2]”, the Michaelis constant (Km) was 33700 µM and the kcat came to 1.4 s⁻¹. In series [3], the Km came to 39.3 ± 6.6 µM, the Vmax is 33.8 µmol/min/mg, the catalytic constant (kcat) is 123 s⁻¹ and the catalytic efficiency (kcat/Km) is 3.1e+06 M⁻¹ s⁻¹.

(Values after paper PMC9295118, “Tungsten Enzyme Using Hydrogen as an Electron Donor to Reduce Carboxylic Acids and NAD^+” (ACS Catalysis, 2022).)
